Results: patent publication US20230123178A1 (Hoffmann-La Roche, published 2023)

What was measured:
[1] = molecular target: T1, full-length human PD1 on cells (human, UniProt Q15116 25-288); assay: cell-based or functional assay
[2] = molecular target: T1, full-length human PD1 on cells; assay: flow cytometry, activated human PBMCs, CD4 T cells
Method: (§1) Cells were further incubated for 2 days at 37° C. and 5% CO₂
(§2) For the binding assay 0.1×10⁶ fresh or activated PBMCs were added to each well of a round-bottom suspension cell 96-well plates (greiner bio-one, cellstar, Cat. No. 650185). Plates were centrifuged 5 minutes with 350×g and at 4° C. and supernatant were discarded. Afterwards cells were stained in 100 μL/well DPBS containing 1:5000 diluted fixable viability dye eF660 (eBioscience, Cat.-No. 65-0864-18) for 30 minutes at 4° C. in the dark. Cells were washed once with 200 μL ice cold cold DPBS buffer. Next, 50 μL/well of 4° C. cold FACS buffer (DPBS supplied with 2% FBS, 5 mM EDTA pH8 (Amresco, Cat. No. E177) and 7.5 mM Sodium azide (Sigma-Aldrich, Cat.-No. S2002)) containing titrated concentrations of construct 7.1, construct 7.3, construct 7.5 and construct 7.6 and as controls control B, control C, control D, control M and control F were added and cells were incubated for 60 minutes at 4° C., washed three times with 200 μL/well 4° C. FACS buffer. […] Data was analyzed using FlowJo V10 (FlowJo, LLC) and GraphPad Prism 6.04 (GraphPad Software, Inc)

[3] = molecular target: T2, human 4-1BB on cells (human, UniProt Q07011 24-255); assay: flow cytometry on HeLa-huCD137-NFkB-luc clone 26 cells; PE-conjugated anti-human IgG secondary; geo mean
T2 construct: whole, on cells; also called HeLa-hu4-1BB-NFkB-luc clone 26; HeLa-huCD137-NFkB-luc clone 26 cells
T2 sequence (Q07011 24-255): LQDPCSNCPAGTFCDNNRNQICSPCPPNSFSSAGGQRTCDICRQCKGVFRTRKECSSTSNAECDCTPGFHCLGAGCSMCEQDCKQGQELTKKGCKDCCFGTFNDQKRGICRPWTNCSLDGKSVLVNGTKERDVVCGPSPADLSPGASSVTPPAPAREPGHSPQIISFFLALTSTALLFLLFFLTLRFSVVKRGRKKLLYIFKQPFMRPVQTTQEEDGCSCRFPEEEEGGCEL
Method: Cells were washed once with 200 μL DPBS. Cells were resuspended in 100 μL/well of 4° C. cold DPBS buffer containing 1:5000 diluted Fixable Viability Dye eFluor 660 (eBioscience, Cat. No. 65-0864-18) and plates were incubated for 30 minutes at 4° C. Cells were washed once with 200 μL/well 4° C. cold DPBS buffer and resuspended in 50 μL/well of 4° C. cold FACS buffer (DPBS supplied with 2% FBS, 5 mM EDTA pH8 (Amresco, Cat. No. E177) and 7.5 mM Sodium azide (Sigma-Aldrich S2002)) containing PD1-targeted 4-1BB split trimeric ligand Fc fusion antigen binding molecules at a series of concentrations, followed by incubation for 1 hour at 4° C. After extensive washing, cells were further stained with 50 μL/well of 4° C. cold FACS buffer containing 5 μg/mL PE-conjugated AffiniPure anti-human IgG F(ab′)2-fragment-specific goat F(ab′)2 fragment (Jackson ImmunoResearch, Cat. No. 109 116 098) for 30 minutes at 4° C. Cells were washed twice with 200 μL/well 4° C. […] Data was analyzed using FlowJo V10 (FlowJo, LLC) and GraphPad Prism 6.04 (GraphPad Software, Inc).
(§3) Gates were set on living tumor cells and geo means of fluorescence intensity of PE-conjugated AffiniPure anti-human IgG IgG Fcγ-fragment-specific goat F(ab′)2 fragment were blotted against the titrated concentration of PD1-targeted 4-1BB split trimeric ligand Fc fusion antigen binding molecules or their controls.

[4] = molecular target: T1, full-length human PD1 on cells; assay: flow cytometry, freshly isolated resting human PBMCs (table title), CD4 T cells
Method: as §2

[5] = molecular target: T1, full-length human PD1 on cells; assay: flow cytometry, activated human PBMCs, CD8 T cells
Method: as §1, §2

[6] = molecular target: T1, full-length human PD1 on cells; assay: flow cytometry, freshly isolated resting human PBMCs (table title), γδ T cells
Method: as §2

[7] = molecular target: T1, full-length human PD1 on cells; assay: flow cytometry, activated human PBMCs, γδ T cells
Method: as §1, §2

[8] = molecular target: T1, full-length human PD1 on cells; assay: flow cytometry on CHO-K1-huPD1 clone 5 cells
Source text: For binding assays on PD1 and 4-1BB expressing tumor cells two genetically modified tumor cells were used. The generation of human expressing HeLa-hu4-1BB-NFκB-luc clone 26 cells will be described in Example 5.3.1. For human PD1 expressing tumor cell lines, CHO-k1 cells were transfected with human PD1 as following: parental adherent CHO-K1 cell line (ATCC CCL-61) was stably transfected with plasmid 15311_hPD1-fl_pUC_Neo coding for full-length human PD1 and selection with G418 (Neomycin resistance marker on plasmid).
0.1×10⁶ tumor cells resuspended in DPBS (Gibco by Life Technologies, Cat. No. 14190 326) were added to each well of a round-bottom suspension cell 96-well plates (greiner bio-one, cellstar, Cat. No. 650185). Cells were washed once with 200 μL DPBS. Cells were resuspended in 100 μL/well of 4° C. cold DPBS buffer containing 1:5000 diluted Fixable Viability Dye eFluor 660 (eBioscience, Cat. No. 65-0864-18) and plates were incubated for 30 minutes at 4° C. […] Data was analyzed using FlowJo V10 (FlowJo, LLC) and GraphPad Prism 6.04 (GraphPad Software, Inc).
as §3

[9] = molecular target: T1, full-length human PD1 on cells; assay: flow cytometry, activated human PBMCs, CD19 cells
Method: as §1, §2

T1 sequence (Q15116 25-288 limits assumed): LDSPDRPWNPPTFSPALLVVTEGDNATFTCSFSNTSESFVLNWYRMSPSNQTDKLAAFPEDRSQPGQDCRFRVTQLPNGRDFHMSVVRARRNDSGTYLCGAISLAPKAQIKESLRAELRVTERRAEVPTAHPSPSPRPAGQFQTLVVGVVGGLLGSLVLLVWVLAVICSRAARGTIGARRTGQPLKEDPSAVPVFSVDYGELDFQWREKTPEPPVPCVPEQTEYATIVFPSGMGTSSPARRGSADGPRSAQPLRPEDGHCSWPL

Binder | Percentage of IFN gamma secretion in MLR against rec hu IL-2 (=100%), dilution 1:12 [1] [%] | Percentage of IFN gamma secretion in MLR against rec hu IL-2 (=100%), dilution 1:120 [1] [%] | Percentage of IFN gamma secretion in MLR against rec hu IL-2 (=100%), dilution 1:1200 [1] [%] | EC50 [2] [nM] | binding result [3] | EC50 [4] [nM] | EC50 [5] [nM] | EC50 [6] [nM] | EC50 [7] [nM] | EC50 [8] [nM] | EC50 [9] [nM]
PD1-0050 (antibody, V domains shown) VH: DVQLQESGPGLVKPSQSLSLTCTVTGYSITSDYAWNWIRQFPGNKLEWMGYITYTGRTSYNPSLKSRISITRDTSKNQFFLQLNSVTTEDTATYYCAREMDYYGSTLDYWGQGTTLTVSS VL: KIVLTQSPASLAVSLRQRATISCRASESVDRYGNSFIHWYQQKPGQPPKVLIYRASNLESGFPARFSGSGSRTDFTLTIDPVEADDAATYYCQQNNEDPYTFGSGTKLEIK | 136 | 96 | 33 |  |  |  |  |  |  |  | 
PD1-0069 (antibody, V domains shown) VH: QVQLQQSGPELVRPGVSVKISCKGSGYTFTDYAMHWVKQSHARTLEWIGVISTYSGDTNYNQKFKDKATMTVDKSSSTAYLELARMTSEDSAIYYCARLGITTGFAYWGQGTLVTVSA VL: DIVLTQSPASLAVSLGQRATISCRASKGVSTSSYSFMHWYQQKPRQPPKLLIKYASYLESGVPARFSGSGSGTDFTLNIHPVEEEDAATYYCHHSREFPWTFGGGTKLEIK | 76 | 71 | 55 |  |  |  |  |  |  |  | 
anti-PD1(0314) huIgG1 PGLALA (control M) (antibody, V domains shown, monospecific IgG1 of clone 0314; also called PD1 targeted human IgG control M) VH: EVQLLESGGGLVQPGGSLRLSCAASGFSFSSYTMSWVRQAPGKGLEWVATISGGGRDIYYPDSVKGRFTISRDNSKNTLYLQMNSLRAEDTAVYYCVLLTGRVYFALDSWGQGTLVTVSS VL: EIVLTQSPATLSLSPGERATLSCRASESVDTSDNSFIHWYQQKPGQSPRLLIYRSSTLESGIPARFSGSGSGTDFTLTISSLEPEDFAVYYCQQNYDVPWTFGQGTKVEIKR |  |  |  | 0.33 | no binding (tested: ~300 nM) | 0.03 | 0.3 | 0.03 | 0.71 | 1.59 | 0.33
PD1-0073 (antibody, V domains shown) VH: EVKLVESGGGLVKPGGSLKLSCAASGFTFSNYGMSWIRQTPEKGLEWVATISGGGRDTYYPDSVKGRFTISRDNVKNNLYLQMSSLRSEDTAFYYCASYYYGIDYWGQGTSVTVSS VL: DIVMTQPHKFMSTSVGDRVRITCKASQDVTTAVAWYQQKPGQSPKLLIYWASTRHTGVPDRFTGSGSGTEFTLTISSVQAEDLALYYCQQHYSIPWTFGGGTKLEIK | 103 | 63 | 38 |  |  |  |  |  |  |  | 
PD1-0078 (antibody, V domains shown) VH: QVQLQQPGAELVKPGASVKMSCKASGYTFTSTWMHWVKQRPGQGLEWIGAIDPSDSYTTYNQKFKGKATLTVDTSSTTAYMQLSSLTSEDSAVYYCTRSPFDYWGQGTTLTVSS VL: DIVMTQSHKFMSTSVGDRVSITCKASQDVSTAVAWYQQKPGQSPKLLIYSASYRYTGVPDRFTGSGSGTDFTFAISSVQAEDLAVYYCQQHYSHPFTFGSGTKLEIK | 99 | 72 | 21 |  |  |  |  |  |  |  | 
